Assay [1] has as its target T1, recombinant human CD47 (human, UniProt Q08722 19-139, limits assumed).
T1 construct: Recombinant protein for ELISA coating; also called human CD47 recombinant protein
In words: ELISA, plate coated with recombinant human CD47, detection with peroxidase anti-human IgG (Fab specific), OD450. The method, then:
(§1) A 96-well plate was coated overnight at 4° C. with 1 μg/ml recombinant human CD47 or human EpCAM. After washing 3 times, the plate was blocked with 300 μl 1% BSA in PBST at 37° C. for 1 hour. Serially diluted antibodies were added and incubated at 37° C. for 1 hour. The plate was then washed 4 times with PBST and incubated with 1:5000 diluted peroxidase labeled goat anti-human IgG (Fab specific) secondary antibody (Sigma, Cat #A0293) for 1 hour at 37° C. The plate was washed again 4 times with PBST, incubated with 3,3′,5,5′-tetramethylbenzidine (TMB) substrate for 15 min at room temperature, terminated with 1N HCl, and then read at 450 nm.
(§2) ELISA assay was performed as described in EXAMPLE 3.

Assay [2] deals with T2, recombinant human EpCAM (human, UniProt P16422 24-265).
T2 construct: Recombinant protein for ELISA coating; also called human EpCAM recombinant protein
T2 sequence (looked up): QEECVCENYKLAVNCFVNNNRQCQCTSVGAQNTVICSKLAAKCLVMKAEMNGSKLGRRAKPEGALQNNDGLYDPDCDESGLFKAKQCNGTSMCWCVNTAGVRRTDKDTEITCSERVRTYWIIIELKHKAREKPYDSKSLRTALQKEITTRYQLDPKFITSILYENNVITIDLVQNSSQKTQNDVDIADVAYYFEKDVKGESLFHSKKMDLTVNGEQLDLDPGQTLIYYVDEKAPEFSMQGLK
Kind of assay: ELISA, plate coated with recombinant human EpCAM, detection with peroxidase anti-human IgG (Fab specific), OD450. The method, then: as §1, §2
In general terms: ELISA stands for enzyme-linked immunosorbent assay.

Assay [3] concerns the target T3, CD47 on human cells (human, UniProt Q08722 19-323).
T3 construct: whole, on cells; Endogenous CD47 on cells; also called CD47 on Raji cells; CD47 on HCT-15 cells
Kind of assay: flow cytometry, blocking of SIRPα-mIgG2a fusion protein (1 µg/mL) binding to CD47 on HCT-15 cells (EpCAM+++/CD47+), inhibition (%). The method, then: (§3) Tumor cells were harvested, centrifuged, and then resuspended in FACS buffer (PBS plus 2% FBS) at a concentration of 2×10⁶ cells/mL. 100 μL of the cell suspension was dispensed into each well of a 96-well plate. The plate was centrifuged for 5 min and 300×g, and the supernatants were discarded. […] Then, the plates were washed twice with FACS buffer and incubated for 1 hour at 4° C. in the dark with 100 μL of Alexa Fluor 488 donkey anti-Mouse IgG (H+L) secondary antibody (Invitrogen, Cat #A21202, 1:1000). After washing twice with FACS buffer, the plates were resuspended with 300 μL FACS buffer and analyzed by flow cytometry.
(In general: In flow cytometry, cells or beads pass a laser one at a time.)

In assay [4] the target is T3, CD47 on human cells. In words: flow cytometry competition with SIRPα-mIgG2a (0.2 µg/mL) on EpCAM-negative Raji cells; EpCAM negative Raji cells; SIRPα-mIgG2a 0.2 µg/mL. The method, then: as §3
The target in assay [5] is T3, CD47 on human cells. Kind of assay: flow cytometry competition with SIRPα-mIgG2a; IC50 on HCT-15 cells against IC50 on Raji cells. As for the experimental part: as §3
Assay [6] addresses T3, CD47 on human cells. Kind of assay: flow cytometry on a mixture of HCT-15 cells and RBCs; EC50 on HCT-15 cells against EC50 on RBCs.
Protocol: (§4) Binding of antibodies on mixed tumor cells and RBCs was performed by FACS. In brief, antibodies were incubated with a mixture of HCT-15 tumor cells and RBCs (in 20-fold excess of tumor) for 1 h at 4° C. The binding of antibodies on HCT-15 cells and RBCs were identified by using different FACS markers and detected by flow cytometry.
Assay [7] addresses T3, CD47 on human cells. In words: flow cytometry competition with SIRPα-mIgG2a (1 µg/mL) on EpCAM-high HCT-15 cells; EpCAM high HCT-15 cells; SIRPα-mIgG2a 1 µg/mL. As for the experimental part:
as §3

The target in assay [8] is T3, CD47 on human cells. In words: flow cytometry on a mixture of HCT-15 tumor cells and a 20-fold excess of RBCs, signal on the HCT-15 cells (EpCAM+/CD47+, so both arms of the bispecific can take part), % of selective binding.
Protocol: as §4
In assay [9] the target is T1, recombinant human CD47. Kind of assay: ELISA, plate coated with recombinant human CD47, detection with peroxidase anti-human IgG (Fab specific), OD450. As for the experimental part:
as §1
The source holds these as a separate data set.

For assay [10], the target named is T2, recombinant human EpCAM. Kind of assay: ELISA, plate coated with recombinant human EpCAM, detection with peroxidase anti-human IgG (Fab specific), OD450. As for the experimental part: as §1
The source holds these as a separate data set.

For assay [11], the target named is T3, CD47 on human cells. In words: flow cytometry, blocking of SIRPα-mIgG2a fusion protein (0.2 µg/mL) binding to CD47 on Raji cells (EpCAM-/CD47+), inhibition (%). As for the experimental part: as §3
Assay [12] deals with T1, recombinant human CD47. Kind of assay: ELISA, plate coated with recombinant human CD47, detection with peroxidase anti-human IgG (Fab specific), OD450. The method, then:
as §1, with “μg/mL” for “μg/ml”, “EGFR.” for “EpCAM.”, “μL” for “μl”
This is another data set of the same source.

Read-outs that look alike come from different tables or passages of the source.

One may read the EC50 (read off the curve) as the concentration giving half of the maximal effect. A word on the IC50: it is the concentration that gives 50% inhibition. Read a high IC50 as lower potency.

B1: CD47×EpCAM_v9 (bispecific antibody, human IgG1, kappa)
heavy: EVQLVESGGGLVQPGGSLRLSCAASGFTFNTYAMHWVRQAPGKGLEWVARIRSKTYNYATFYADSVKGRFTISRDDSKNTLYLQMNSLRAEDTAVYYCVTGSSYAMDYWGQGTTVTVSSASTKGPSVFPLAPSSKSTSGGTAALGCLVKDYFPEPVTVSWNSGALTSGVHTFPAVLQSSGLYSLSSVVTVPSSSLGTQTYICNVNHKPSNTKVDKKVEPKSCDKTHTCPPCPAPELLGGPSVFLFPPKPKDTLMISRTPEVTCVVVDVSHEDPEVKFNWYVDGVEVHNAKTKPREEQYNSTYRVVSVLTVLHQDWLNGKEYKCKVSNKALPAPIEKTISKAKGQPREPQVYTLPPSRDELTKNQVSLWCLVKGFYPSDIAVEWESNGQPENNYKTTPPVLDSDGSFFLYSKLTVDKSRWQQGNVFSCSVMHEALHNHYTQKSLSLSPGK
light: DIQLTQSPSSLSASVGDRVTFTCRASQSIGTSLHWYQQKPGKAPKLLIKYASESISGIPSRFSGSGSGTDFTLTISSVQPEDFATYYCQQSNSWPYTFGQGTKLEIKRTVAAPSVFIFPPSDEQLKSGTASVVCLLNNFYPREAKVQWKVDNALQSGNSQESVTEQDSKDSTYSLSSTLTLSKADYEKHKVYACEVTHQGLSSPVTKSFNRGEC
scFv: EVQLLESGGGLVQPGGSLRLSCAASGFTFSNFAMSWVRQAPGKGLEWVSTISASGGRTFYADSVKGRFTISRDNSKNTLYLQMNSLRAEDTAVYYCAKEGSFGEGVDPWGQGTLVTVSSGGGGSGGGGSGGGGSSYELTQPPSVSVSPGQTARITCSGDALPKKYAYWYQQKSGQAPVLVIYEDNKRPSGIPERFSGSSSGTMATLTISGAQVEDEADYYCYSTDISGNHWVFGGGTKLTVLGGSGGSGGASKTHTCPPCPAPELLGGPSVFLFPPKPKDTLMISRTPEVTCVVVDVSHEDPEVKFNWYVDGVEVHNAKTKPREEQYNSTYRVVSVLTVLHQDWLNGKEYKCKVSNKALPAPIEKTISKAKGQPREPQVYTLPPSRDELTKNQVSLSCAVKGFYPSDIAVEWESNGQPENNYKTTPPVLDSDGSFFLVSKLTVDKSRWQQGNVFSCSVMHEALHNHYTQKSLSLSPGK
notes: Three-chain knob-into-hole bispecific: anti-EpCAM Fab arm and anti-CD47 scFv arm
In the case of B1, the concentration giving a half-maximal response (EC50 (read off the curve)) was around 7000 pM in the assay with recombinant human CD47 [1] and around 100 pM in the assay with recombinant human EpCAM [2].

B2: CD47×EpCAM_v5 (bispecific antibody, human IgG1, lambda)
heavy: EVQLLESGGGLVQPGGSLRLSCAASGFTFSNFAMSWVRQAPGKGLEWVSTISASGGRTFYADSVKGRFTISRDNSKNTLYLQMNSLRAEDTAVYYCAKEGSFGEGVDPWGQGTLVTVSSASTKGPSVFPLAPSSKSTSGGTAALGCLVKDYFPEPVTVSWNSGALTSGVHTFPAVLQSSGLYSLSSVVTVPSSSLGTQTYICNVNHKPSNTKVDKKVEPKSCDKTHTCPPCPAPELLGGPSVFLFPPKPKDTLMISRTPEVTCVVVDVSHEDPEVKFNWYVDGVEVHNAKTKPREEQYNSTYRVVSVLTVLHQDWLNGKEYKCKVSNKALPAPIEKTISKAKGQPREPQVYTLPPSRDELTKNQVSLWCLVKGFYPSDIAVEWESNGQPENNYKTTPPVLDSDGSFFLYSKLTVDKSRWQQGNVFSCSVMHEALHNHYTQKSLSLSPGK
light: SYELTQPPSVSVSPGQTARITCSGDALPKKYAYWYQQKSGQAPVLVIYEDNKRPSGIPERFSGSSSGTMATLTISGAQVEDEADYYCYSTDISGNHWVFGGGTKLTVLGQPKAAPSVTLFPPSSEELQANKATLVCLISDFYPGAVTVAWKADSSPVKAGVETTTPSKQSNNKYAASSYLSLTPEQWKSHRSYSCQVTHEGSTVEKTVAPTECS
scFv: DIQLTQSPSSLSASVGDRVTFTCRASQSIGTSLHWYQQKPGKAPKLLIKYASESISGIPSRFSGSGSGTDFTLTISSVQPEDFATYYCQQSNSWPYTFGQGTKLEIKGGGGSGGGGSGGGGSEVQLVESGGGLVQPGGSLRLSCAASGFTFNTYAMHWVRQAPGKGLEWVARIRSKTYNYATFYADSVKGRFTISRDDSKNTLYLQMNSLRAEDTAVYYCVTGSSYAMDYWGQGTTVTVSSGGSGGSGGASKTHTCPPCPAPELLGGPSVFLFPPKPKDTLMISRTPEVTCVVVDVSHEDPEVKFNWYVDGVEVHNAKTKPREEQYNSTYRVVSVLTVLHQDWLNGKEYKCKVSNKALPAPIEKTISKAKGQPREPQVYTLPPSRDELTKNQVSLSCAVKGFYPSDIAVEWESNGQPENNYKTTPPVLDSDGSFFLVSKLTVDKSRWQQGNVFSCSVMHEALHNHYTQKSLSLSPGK
notes: Three-chain knob-into-hole bispecific: anti-CD47 Fab arm (VIR47.V8) and anti-EpCAM scFv arm (Mab002-11), human IgG1 backbone; also called anti-CD47×EpCAM bispecific antibody
For B2, in the assay with CD47 on human cells [3], the “IC50 (read off the curve)” value is around 300 pM. Besides, the IC50 in the assay with CD47 on human cells [4] was above 100000 pM; with CD47 on human cells [7], below 1000 pM. In addition, the “fold difference of IC50 (HCT-15 cells against Raji cells)” value in the assay with CD47 on human cells [5] was around 500 fold. For the same molecule, the “fold difference of binding EC50 (tumor cells against RBCs)” value with CD47 on human cells [6] is above 200 fold. The “EC50 (read off the curve)” value in the assay with CD47 on human cells [8] was around 90 pM; with recombinant human CD47 [9], around 1000 pM; with recombinant human EpCAM [10], around 800 pM.

B3: CD47×EpCAM_v10 (bispecific antibody, human IgG1, lambda)
heavy: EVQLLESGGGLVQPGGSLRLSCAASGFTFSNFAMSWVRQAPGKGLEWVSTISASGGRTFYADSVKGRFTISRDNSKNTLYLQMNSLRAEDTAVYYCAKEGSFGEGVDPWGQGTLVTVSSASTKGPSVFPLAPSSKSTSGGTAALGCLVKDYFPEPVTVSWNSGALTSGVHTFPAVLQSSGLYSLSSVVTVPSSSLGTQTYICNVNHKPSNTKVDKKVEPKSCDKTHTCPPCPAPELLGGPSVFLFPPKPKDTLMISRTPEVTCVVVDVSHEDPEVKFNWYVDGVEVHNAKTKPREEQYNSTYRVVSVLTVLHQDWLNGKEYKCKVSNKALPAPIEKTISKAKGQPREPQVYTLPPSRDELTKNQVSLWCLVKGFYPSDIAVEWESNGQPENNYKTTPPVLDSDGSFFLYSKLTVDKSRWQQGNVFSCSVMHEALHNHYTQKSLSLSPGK
light: SYELTQPPSVSVSPGQTARITCSGDALPKKYAYWYQQKSGQAPVLVIYEDNKRPSGIPERFSGSSSGTMATLTISGAQVEDEADYYCYSTDISGNHWVFGGGTKLTVLGQPKAAPSVTLFPPSSEELQANKATLVCLISDFYPGAVTVAWKADSSPVKAGVETTTPSKQSNNKYAASSYLSLTPEQWKSHRSYSCQVTHEGSTVEKTVAPTECS
scFv: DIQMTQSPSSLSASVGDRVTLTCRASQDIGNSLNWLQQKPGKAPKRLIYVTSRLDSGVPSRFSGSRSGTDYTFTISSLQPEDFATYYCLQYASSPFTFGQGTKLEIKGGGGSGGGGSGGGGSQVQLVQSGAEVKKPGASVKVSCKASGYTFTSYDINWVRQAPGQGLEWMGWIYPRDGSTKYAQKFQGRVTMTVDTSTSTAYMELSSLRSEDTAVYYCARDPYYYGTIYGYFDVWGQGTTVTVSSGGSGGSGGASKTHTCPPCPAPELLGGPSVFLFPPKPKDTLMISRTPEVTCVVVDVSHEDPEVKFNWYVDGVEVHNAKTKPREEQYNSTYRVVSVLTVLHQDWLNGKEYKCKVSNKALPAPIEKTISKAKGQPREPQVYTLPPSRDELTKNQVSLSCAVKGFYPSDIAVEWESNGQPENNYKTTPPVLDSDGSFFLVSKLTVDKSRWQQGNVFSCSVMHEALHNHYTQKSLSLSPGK
notes: Three-chain knob-into-hole bispecific: anti-CD47 Fab arm and anti-EpCAM scFv arm (Mab001-12)
As for B3, the “EC50 (read off the curve)” value with recombinant human CD47 [1] is around 1000 pM; with recombinant human EpCAM [2], around 9000 pM.

B4: CD47×EpCAM_v11 (bispecific antibody, human IgG1, lambda)
heavy: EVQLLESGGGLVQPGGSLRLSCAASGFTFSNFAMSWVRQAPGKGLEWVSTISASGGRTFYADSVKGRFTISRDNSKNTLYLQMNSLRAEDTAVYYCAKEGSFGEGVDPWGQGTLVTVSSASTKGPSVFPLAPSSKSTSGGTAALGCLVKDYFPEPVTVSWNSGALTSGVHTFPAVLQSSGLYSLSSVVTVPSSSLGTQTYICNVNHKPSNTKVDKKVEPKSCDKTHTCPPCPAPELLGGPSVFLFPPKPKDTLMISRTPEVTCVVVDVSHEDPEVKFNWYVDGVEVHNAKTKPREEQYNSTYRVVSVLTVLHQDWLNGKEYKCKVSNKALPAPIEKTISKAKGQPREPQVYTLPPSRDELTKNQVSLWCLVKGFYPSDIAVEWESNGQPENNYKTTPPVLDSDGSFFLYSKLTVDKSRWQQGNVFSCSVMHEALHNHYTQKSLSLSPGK
light: SYELTQPPSVSVSPGQTARITCSGDALPKKYAYWYQQKSGQAPVLVIYEDNKRPSGIPERFSGSSSGTMATLTISGAQVEDEADYYCYSTDISGNHWVFGGGTKLTVLGQPKAAPSVTLFPPSSEELQANKATLVCLISDFYPGAVTVAWKADSSPVKAGVETTTPSKQSNNKYAASSYLSLTPEQWKSHRSYSCQVTHEGSTVEKTVAPTECS
scFv: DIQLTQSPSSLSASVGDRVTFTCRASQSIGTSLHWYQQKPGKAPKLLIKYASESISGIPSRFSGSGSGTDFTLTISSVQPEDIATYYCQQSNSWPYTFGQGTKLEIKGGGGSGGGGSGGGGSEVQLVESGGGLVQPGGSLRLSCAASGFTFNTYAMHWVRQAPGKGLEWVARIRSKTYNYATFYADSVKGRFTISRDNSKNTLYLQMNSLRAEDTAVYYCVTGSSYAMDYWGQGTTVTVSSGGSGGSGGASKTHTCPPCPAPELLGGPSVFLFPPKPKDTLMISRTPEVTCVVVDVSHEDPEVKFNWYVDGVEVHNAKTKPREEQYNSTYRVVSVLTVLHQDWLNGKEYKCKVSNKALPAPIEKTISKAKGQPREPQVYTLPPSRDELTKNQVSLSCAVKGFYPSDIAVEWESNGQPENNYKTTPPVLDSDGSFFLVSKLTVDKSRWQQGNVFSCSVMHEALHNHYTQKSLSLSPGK
notes: Three-chain knob-into-hole bispecific: anti-CD47 Fab arm and anti-EpCAM scFv arm (Mab002-8)
With B4, the 50% effective concentration (EC50 (read off the curve)) with recombinant human CD47 [1] was around 400 pM; in the assay with recombinant human EpCAM [2], around 100 pM.

B5: VIR47.V8 (antibody, human IgG1, lambda, V domains shown)
VH: EVQLLESGGGLVQPGGSLRLSCAASGFTFSNFAMSWVRQAPGKGLEWVSTISASGGRTFYADSVKGRFTISRDNSKNTLYLQMNSLRAEDTAVYYCAKEGSFGEGVDPWGQGTLVTVSS
VL: SYELTQPPSVSVSPGQTARITCSGDALPKKYAYWYQQKSGQAPVLVIYEDNKRPSGIPERFSGSSSGTMATLTISGAQVEDEADYYCYSTDISGNHWVFGGGTKLTVLG
notes: Bivalent monospecific parental anti-CD47 antibody; also called parental CD47 antibody VIR47.V8; anti-CD47 bivalent antibody (VIR47.V8)
As for B5, the “IC50 (read off the curve)” value with CD47 on human cells [11] is around 8000 pM. Also, the half-maximal effective concentration (EC50 (read off the curve)) with recombinant human CD47 [12] was around 50 pM.

The values are drawn from patent US20250171556A1 (VIRTUOSO BINCO, published 2025).
